Data: publication PMC8211822, “CRISPR-Associated Primase-Polymerases are implicated in prokaryotic CRISPR-Cas adaptation” (Nature Communications, 2021)

Legend:
[1] = molecular target: the molecule itself; test: SEC; MpCAPP-MBP on Superdex 200 10/300
[2] = molecular target: T1, MpAgo, recombinant purified (Marinitoga piezophila, UniProt H2J4R4 1-639); test: pull-down; bait MpCAPP-MBP (20 µg) pre-bound to amylose resin and washed; one prey protein (20 µg) added in 200 µl; 25 mM HEPES pH 7.5, 100 mM NaCl, 50 mM KCl, 3 mM MgCl2, 5% glycerol, 0.5 mM TCEP, 0.1% IGEPAL CA-630; 4 °C, 45 min; Coomassie-stained SDS-PAGE; settings: both partners purified
T1 construct: Argonaute, Marinitoga piezophila, expressed from pET-6His-MBP-MpAgo (Addgene, number not given); His-MBP tag removed with HRV 3C protease; source: E. coli BL21(DE3)pLysS, purified (CoHis resin, tag removal, heparin, Superdex 200)
T1 sequence (looked up): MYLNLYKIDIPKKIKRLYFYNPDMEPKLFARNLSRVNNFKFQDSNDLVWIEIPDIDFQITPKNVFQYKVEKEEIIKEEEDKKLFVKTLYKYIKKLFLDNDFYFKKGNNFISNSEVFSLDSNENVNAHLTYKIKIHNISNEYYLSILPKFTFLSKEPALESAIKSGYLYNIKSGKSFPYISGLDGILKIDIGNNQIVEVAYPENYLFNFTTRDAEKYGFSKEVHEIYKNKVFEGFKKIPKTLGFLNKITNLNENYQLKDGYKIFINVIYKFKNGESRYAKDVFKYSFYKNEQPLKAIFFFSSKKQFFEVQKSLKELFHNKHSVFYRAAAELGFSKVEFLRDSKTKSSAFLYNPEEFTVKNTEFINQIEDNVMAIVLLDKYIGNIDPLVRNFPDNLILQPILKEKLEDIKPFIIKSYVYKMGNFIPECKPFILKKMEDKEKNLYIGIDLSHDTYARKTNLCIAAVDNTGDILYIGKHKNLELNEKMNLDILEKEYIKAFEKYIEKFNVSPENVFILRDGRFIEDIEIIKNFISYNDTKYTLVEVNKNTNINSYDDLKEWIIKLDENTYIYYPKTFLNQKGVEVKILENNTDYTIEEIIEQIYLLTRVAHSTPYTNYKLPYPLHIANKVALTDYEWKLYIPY

- binding result [2]: binds
B1: MpCAPP with C-terminal MBP fusion (MpCAPP-MBP), recombinant (enzyme, Marinitoga piezophila, UniProt H2J4R1 1-546, looked up)
chain: MNFKELAFKAEEDFDFEKAIEYYKKAFNELTINDDSLIRYANLLFDFQKFEEAEPIFEKIVSEINDSEYMSKLAIIYEENNKFEKALKIYKELGIESKVKELSDKIELKAPSQNAIKRFMTLFSGREDVFSIQYEGGYRPIRRPLNFHDIKDHFSGKKTLGIYLLKKNDTVKFAAYDIDIKKHYLNREDKFVYEENSKKVAKRLSRELNLENIIHYFEFTGNRGYHIWIFFDIPVSAYKIKYIMEKILDRIELEEGIDVEIFPKQTSLNGGLGNLIKVPLGVHKKTGKKCLFVDNDFNVIENQIEFLNNIKENKATEIDKLFREIFNENDYDDFNVTYKKRTTSSKNSASKKIKSSIRKTLPKSNKNIFTQMIEGCHILKQINEKIEKEAYITEEEEMIFIKSLANLENSKKFIEMKLSQTINFSKKRIDMIIKQSLGVPITCEEIRKIILNKDISLSLENCTCKFQGNYNSPYAIVENIEEMFLDKIDINDIAKKIVEKNAEKFEIEKEIKNLKRMIAKKMGDSKELRTEIGTIKRFGDDIEIIL
notes: MpCAPP, Marinitoga piezophila, Marpi_0402 / WP_014295918.1; the MBP fusion has a size of ~108 kDa; Codon-optimised gene in Supplementary Note 4; cloning details in Supplementary Data 3; also called MpCAPP WT; CAPP WT (C-terminal MBP); source: E. coli BL21 (DE3), purified (cobalt NTA, amylose resin); not shown: MBP, C-terminal, kept
- binding result [1]: binds
